According to patent US20240132578A1:

How the values were obtained:
Experiment in all cases: cell-based or functional assay
[1] = target: HIV-1 Env of isolate MGRM-Chronic-B-010 (HIV-1)
[2] = target: HIV-1 Env of isolate MGRM-Chronic-B-012 (HIV-1)
[3] = target: HIV-1 Env of isolate QH0692.42 (HIV-1)
[4] = target: HIV-1 Env of isolate JRCSF (HIV-1) (UniProt P20871)
[5] = target: HIV-1 Env of isolate THR0.18 (HIV-1)
[6] = target: HIV-1 envelope glycoprotein (Env) of isolate MG RM-AG-006 (HIV-1)
[7] = target: HIV-1 Env of isolate 93IN905 (HIV-1)
[8] = target: HIV-1 Env of isolate SF162 (HIV-1) (UniProt P19550)
[9] = target: HIV-1 Env of isolate VLGCB3 (HIV-1)
[10] = target: HIV-1 Env of isolate MGRM-Chronic-B-024 (HIV-1)
[11] = target: HIV-1 Env of isolate MGRM-Chronic-B-023 (HIV-1)
[12] = target: HIV-1 Env of isolate MGRM-Chronic-B-011 (HIV-1)
[13] = target: HIV-1 Env of isolate 97ZA012 (HIV-1)
[14] = target: HIV-1 Env of isolate NL43 (HIV-1)
[15] = target: HIV-1 Env of isolate MGRM-Chronic-B-018 (HIV-1)
[16] = target: HIV-1 Env of isolate TRJ04551.58 (HIV-1)
[17] = target: HIV-1 Env of isolate SC422661.8 (HIV-1)
[18] = target: HIV-1 Env of isolate MGRM-Chronic-B-020 (HIV-1)
[19] = target: HIV-1 Env of isolate PVO.4 (HIV-1)
[20] = target: HIV-1 Env of isolate 98IN022 (HIV-1)
[21] = target: HIV-1 Env of isolate TRO.11 (HIV-1)
[22] = target: HIV-1 Env of isolate MGRM-Chronic-B-017 (HIV-1)
[23] = target: HIV-1 Env of isolate 93MW959 (HIV-1)
[24] = target: HIV-1 Env of isolate 93WR029 (pseudovirus) (HIV-1)
[25] = target: HIV-1 Env of isolate MGRM-AE-005 (pseudovirus) (HIV-1)
[26] = target: HIV-1 Env of isolate 92UG031 (pseudovirus) (HIV-1)
[27] = target: HIV-1 Env of isolate 92WR026 (pseudovirus) (HIV-1)
[28] = target: HIV-1 Env of isolate 93UG077 (pseudovirus) (HIV-1)
[29] = target: HIV-1 Env of pseudovirus isolate APV-6 (clade B) (HIV-1)
[30] = target: HIV-1 Env of isolate MGRM-AE-004 (pseudovirus) (HIV-1)
[31] = target: HIV-1 Env of isolate 92WR021 (pseudovirus) (HIV-1)
[32] = target: HIV-1 Env of isolate 92WR024 (pseudovirus) (HIV-1)
[33] = target: HIV-1 Env of isolate MGRM-AE-006 (pseudovirus) (HIV-1)
[34] = target: HIV-1 Env of isolate 92WR020 (pseudovirus) (HIV-1)
[35] = target: HIV-1 Env of isolate 94UG103 (pseudovirus) (HIV-1)
[36] = target: HIV-1 Env of isolate 92UG037 (pseudovirus) (HIV-1)
[37] = target: HIV-1 92RW020 Env (HIV-1)

PGT-141 (4964_G22; 4993_K13) (antibody), sequence (VH): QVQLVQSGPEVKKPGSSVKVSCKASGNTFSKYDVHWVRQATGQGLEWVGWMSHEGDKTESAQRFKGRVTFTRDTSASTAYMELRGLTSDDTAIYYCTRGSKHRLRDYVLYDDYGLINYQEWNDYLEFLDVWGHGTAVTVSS
PGT-141 (4964_G22; 4993_K13) (antibody), sequence (VL): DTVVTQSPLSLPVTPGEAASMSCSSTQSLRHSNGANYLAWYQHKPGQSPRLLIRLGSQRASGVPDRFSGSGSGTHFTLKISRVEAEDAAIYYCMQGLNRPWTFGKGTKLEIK
4995_E20 (PGT-142) (antibody), sequence (VH): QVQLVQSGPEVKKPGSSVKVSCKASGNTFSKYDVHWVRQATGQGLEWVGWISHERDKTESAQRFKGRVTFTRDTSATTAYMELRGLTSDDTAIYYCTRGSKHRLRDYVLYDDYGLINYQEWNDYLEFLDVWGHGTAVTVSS
4995_P16 (PGT-145) (antibody), sequence (VH): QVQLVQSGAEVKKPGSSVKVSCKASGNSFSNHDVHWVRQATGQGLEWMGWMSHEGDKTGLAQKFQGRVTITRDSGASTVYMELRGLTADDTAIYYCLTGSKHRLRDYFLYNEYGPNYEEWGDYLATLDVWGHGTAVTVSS
4995_P16 (PGT-145) (antibody), sequence (VL): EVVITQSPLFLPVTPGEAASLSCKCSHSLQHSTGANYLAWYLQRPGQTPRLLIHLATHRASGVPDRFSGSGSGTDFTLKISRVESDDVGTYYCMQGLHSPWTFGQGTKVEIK
PGT-144 (4970_K22) (antibody), sequence (VH): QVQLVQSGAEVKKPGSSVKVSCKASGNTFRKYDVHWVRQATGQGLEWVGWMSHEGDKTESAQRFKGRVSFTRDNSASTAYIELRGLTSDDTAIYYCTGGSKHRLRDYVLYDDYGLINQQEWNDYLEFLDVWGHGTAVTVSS
PGT-144 (4970_K22) (antibody), sequence (VL): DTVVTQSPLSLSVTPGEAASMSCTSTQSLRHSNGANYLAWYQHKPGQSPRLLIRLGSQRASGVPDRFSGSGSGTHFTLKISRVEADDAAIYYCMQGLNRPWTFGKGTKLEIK

| Substance | IC50, pseudovirus neutralization [1] | IC50, pseudovirus neutralization [2] | IC50, pseudovirus neutralization [3] | IC50, pseudovirus neutralization [4] | IC50, pseudovirus neutralization [5] | IC50 [6] | IC50, pseudovirus neutralization [7] | IC50, pseudovirus neutralization [8] | IC50, pseudovirus neutralization [9] | IC50, pseudovirus neutralization [10] | IC50, pseudovirus neutralization [11] | IC50, pseudovirus neutralization [12] | IC50, pseudovirus neutralization [13] | IC50, pseudovirus neutralization [14] | IC50, pseudovirus neutralization [15] | IC50, pseudovirus neutralization [16] | IC50, pseudovirus neutralization [17] | IC50, pseudovirus neutralization [18] | IC50, pseudovirus neutralization [19] | IC50, pseudovirus neutralization [20] | other results |
| --- | --- | --- | --- | --- | --- | --- | --- | --- | --- | --- | --- | --- | --- | --- | --- | --- | --- | --- | --- | --- | --- |
| PGT-141 (4964_G22; 4993_K13) (antibody) | > 50 µg/mL | > 50 µg/mL | > 50 µg/mL | 0.009 µg/mL | 0.007 µg/mL | > 50 µg/mL | 0.001 µg/mL | > 50 µg/mL | > 50 µg/mL | 0.011 µg/mL | 0.318 µg/mL | 2.24 µg/mL | > 50 µg/mL | > 50 µg/mL | 0.572 µg/mL | > 50 µg/mL | 1.66 µg/mL | > 50 µg/mL | 0.113 µg/mL | 0.001 µg/mL | IC50, pseudovirus neutralization [21]: 0.383 µg/mL; IC50, pseudovirus neutralization [22]: 0.147 µg/mL; IC50, pseudovirus neutralization [23]: 0.003 µg/mL |
| PGT-145 (4995_P16) (antibody) | > 50 µg/mL | 9.66 µg/mL | > 50 µg/mL | 0.002 µg/mL | 0.013 µg/mL | 6.6 µg/mL | 0.002 µg/mL | > 50 µg/mL | > 50 µg/mL | 0.018 µg/mL | 0.009 µg/mL | 0.206 µg/mL | 0.915 µg/mL | 0.006 µg/mL | 0.013 µg/mL | > 50 µg/mL | 0.079 µg/mL | > 50 µg/mL | 0.299 µg/mL | 0.005 µg/mL | IC50, pseudovirus neutralization [21]: 0.044 µg/mL; IC50, pseudovirus neutralization [22]: 0.054 µg/mL; IC50, pseudovirus neutralization [23]: 1.2 µg/mL |
| 4995_P16 (PGT-145) (antibody) | – | – | – | – | – | – | – | – | – | – | – | – | – | – | – | – | – | – | – | – | IC50 (µg/mL), single-round pseudovirus neutralization [24]: > 50 µg/mL; IC50 (µg/mL), single-round pseudovirus neutralization [25]: 0.967 µg/mL; IC50 (µg/mL), single-round pseudovirus neutralization [26]: 3.22 µg/mL; IC50 (µg/mL), single-round pseudovirus neutralization [27]: 1.45 µg/mL; IC50 (µg/mL), single-round pseudovirus neutralization [28]: > 50 µg/mL; IC50, pseudovirus neutralization [29]: 0.104 µg/mL; IC50 (µg/mL), single-round pseudovirus neutralization [30]: 0.006 µg/mL; IC50 (µg/mL), single-round pseudovirus neutralization [31]: 1.62 µg/mL; IC50 (µg/mL), single-round pseudovirus neutralization [32]: 0.069 µg/mL; IC50 (µg/mL), single-round pseudovirus neutralization [33]: > 50 µg/mL; IC50 (µg/mL), single-round pseudovirus neutralization [34]: 0.997 µg/mL; IC50 (µg/mL), single-round pseudovirus neutralization [35]: 0.331 µg/mL; IC50 (µg/mL), single-round pseudovirus neutralization [36]: 3.15 µg/mL |
| PGT-144 (4970_K22) (antibody) | > 50 µg/mL | > 50 µg/mL | > 50 µg/mL | 0.149 µg/mL | 0.029 µg/mL | > 50 µg/mL | 0.132 µg/mL | > 50 µg/mL | > 50 µg/mL | 0.04 µg/mL | > 50 µg/mL | 5.64 µg/mL | > 50 µg/mL | > 50 µg/mL | 2.4 µg/mL | > 50 µg/mL | > 50 µg/mL | > 50 µg/mL | 0.535 µg/mL | 0.171 µg/mL | IC50, pseudovirus neutralization [21]: 4.73 µg/mL; IC50, pseudovirus neutralization [22]: 0.712 µg/mL; IC50, pseudovirus neutralization [23]: 0.332 µg/mL |
| 4995_E20 (PGT-142) (antibody) | – | – | – | – | – | – | – | – | – | – | – | – | – | – | – | – | – | – | – | – | IC50 (µg/mL), single-round pseudovirus neutralization [24]: 0.014 µg/mL; IC50 (µg/mL), single-round pseudovirus neutralization [25]: > 50 µg/mL; IC50 (µg/mL), single-round pseudovirus neutralization [26]: 0.05 µg/mL; IC50 (µg/mL), single-round pseudovirus neutralization [27]: 1.78 µg/mL; IC50 (µg/mL), single-round pseudovirus neutralization [28]: > 50 µg/mL; IC50, pseudovirus neutralization [29]: 4.72 µg/mL; IC50 (µg/mL), single-round pseudovirus neutralization [30]: 0.001 µg/mL; IC50 (µg/mL), single-round pseudovirus neutralization [31]: > 50 µg/mL; IC50 (µg/mL), single-round pseudovirus neutralization [32]: 0.069 µg/mL; IC50 (µg/mL), single-round pseudovirus neutralization [33]: > 50 µg/mL; IC50, pseudovirus neutralization [37]: > 10 µg/mL; IC50 (µg/mL), single-round pseudovirus neutralization [34]: 31.5 µg/mL; IC50 (µg/mL), single-round pseudovirus neutralization [35]: > 50 µg/mL; IC50 (µg/mL), single-round pseudovirus neutralization [36]: 0.557 µg/mL |
